Laboratory results: the supplement of paper PMC9112550, “Optimization of the antimicrobial peptide Bac7 by deep mutational scanning” (BMC Biology, 2022)

tested on: Escherichia coli TOP10; test: shrunken log2 fold change of peptide-encoding DNA abundance (4.5 h post-induction vs induction); higher = less antimicrobial activity (less host growth inhibition); conditions: time post-induction: 4.5 h; library: site-saturation at positions 5, 18, 19, 20
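Further: peptides expressed intracellularly from a pBAD plasmid library in pooled LB shake-flask culture, induced with 0.3% L-arabinose, DNA abundance read by NGS, three biological replicates, DESeq2 with apeglm shrinkage.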

| Sequence | shrunken log2 fold change |
| --- | --- |
| RRIRLRPPRLPRPRPRPFYCPRP | -0.472 |
| RRIRLRPPRLPRPRPRPGAIPRP | 0.0769 |
| RRIRLRPPRLPRPRPRPGCSPRP | 0.0547 |
| RRIRLRPPRLPRPRPRPGDKPRP | 0.00262 |
| RRIRLRPPRLPRPRPRPGFKPRP | 0.0325 |
| RRIRLRPPRLPRPRPRPGFVPRP | 0.487 |
| RRIRLRPPRLPRPRPRPGGAPRP | 0.384 |
| RRIRLRPPRLPRPRPRPGGRPRP | -0.0451 |
| RRIRLRPPRLPRPRPRPGIGPRP | 0.417 |
| RRIRLRPPRLPRPRPRPGIRPRP | 0.0174 |
| RRIRLRPPRLPRPRPRPGIVPRP | -0.16 |
| RRIRLRPPRLPRPRPRPGKVPRP | -0.0116 |
| RRIRLRPPRLPRPRPRPGNDPRP | -0.0526 |
| RRIRLRPPRLPRPRPRPGNWPRP | 0.0269 |
| RRIRLRPPRLPRPRPRPGPNPRP | 0.0611 |
| RRIRLRPPRLPRPRPRPGPVPRP | 0.753 |
| RRIRLRPPRLPRPRPRPGQNPRP | -0.18 |
| RRIRLRPPRLPRPRPRPGQYPRP | -0.0693 |
| RRIRLRPPRLPRPRPRPGSFPRP | 0.236 |
| RRIRLRPPRLPRPRPRPGTQPRP | -0.0907 |
| RRIRLRPPRLPRPRPRPGTSPRP | -0.0167 |
| RRIRLRPPRLPRPRPRPGWDPRP | 0.507 |
| RRIRLRPPRLPRPRPRPGWIPRP | 0.0964 |
| RRIRLRPPRLPRPRPRPGWYPRP | 0.354 |
| RRIRLRPPRLPRPRPRPGYIPRP | -0.41 |

| Sequence | shrunken log2 fold change |
| --- | --- |
| RRIRLRPPRLPRPRPRPHCPPRP | 0.0666 |
| RRIRLRPPRLPRPRPRPHDAPRP | -0.0938 |
| RRIRLRPPRLPRPRPRPHEVPRP | -0.0201 |
| RRIRLRPPRLPRPRPRPHGCPRP | -0.0225 |
| RRIRLRPPRLPRPRPRPHGFPRP | 0.000509 |
| RRIRLRPPRLPRPRPRPHHAPRP | -0.058 |
| RRIRLRPPRLPRPRPRPHHRPRP | -0.263 |
| RRIRLRPPRLPRPRPRPHHWPRP | -0.124 |
| RRIRLRPPRLPRPRPRPHIMPRP | -0.531 |
| RRIRLRPPRLPRPRPRPHKAPRP | -0.0451 |
| RRIRLRPPRLPRPRPRPHLCPRP | -0.355 |
| RRIRLRPPRLPRPRPRPHLKPRP | -0.564 |
| RRIRLRPPRLPRPRPRPHLMPRP | -0.218 |
| RRIRLRPPRLPRPRPRPHLPPRP | -0.353 |
| RRIRLRPPRLPRPRPRPHLWPRP | 0.0492 |
| RRIRLRPPRLPRPRPRPHMCPRP | -0.165 |
| RRIRLRPPRLPRPRPRPHMFPRP | -0.356 |
| RRIRLRPPRLPRPRPRPHNDPRP | -0.452 |
| RRIRLRPPRLPRPRPRPHNEPRP | -0.497 |
| RRIRLRPPRLPRPRPRPHNNPRP | -0.847 |
| RRIRLRPPRLPRPRPRPHPGPRP | 0.242 |
| RRIRLRPPRLPRPRPRPHRLPRP | 0.166 |
| RRIRLRPPRLPRPRPRPHSPPRP | -0.252 |
| RRIRLRPPRLPRPRPRPHYEPRP | -0.762 |
| RRIRLRPPRLPRPRPRPIAAPRP | 0.272 |

| Sequence | shrunken log2 fold change |
| --- | --- |
| RRIRLRPPRLPRPRPRPICHPRP | -0.368 |
| RRIRLRPPRLPRPRPRPIDLPRP | -0.0804 |
| RRIRLRPPRLPRPRPRPIEMPRP | -0.0708 |
| RRIRLRPPRLPRPRPRPIETPRP | -0.0258 |
| RRIRLRPPRLPRPRPRPIEVPRP | 0.434 |
| RRIRLRPPRLPRPRPRPIGKPRP | -0.335 |
| RRIRLRPPRLPRPRPRPIILPRP | -1.48 |
| RRIRLRPPRLPRPRPRPIIRPRP | -0.19 |
| RRIRLRPPRLPRPRPRPIKEPRP | -0.0262 |
| RRIRLRPPRLPRPRPRPILWPRP | -0.0294 |
| RRIRLRPPRLPRPRPRPINQPRP | -0.321 |
| RRIRLRPPRLPRPRPRPIPHPRP | -0.332 |
| RRIRLRPPRLPRPRPRPIPWPRP | 0.0447 |
| RRIRLRPPRLPRPRPRPIQMPRP | -0.0252 |
| RRIRLRPPRLPRPRPRPIRTPRP | 0.0758 |
| RRIRLRPPRLPRPRPRPISPPRP | -0.333 |
| RRIRLRPPRLPRPRPRPIVHPRP | 0.67 |
| RRIRLRPPRLPRPRPRPIVIPRP | -1.37 |
| RRIRLRPPRLPRPRPRPIVTPRP | 2.68 |
| RRIRLRPPRLPRPRPRPKCSPRP | -0.035 |
| RRIRLRPPRLPRPRPRPKCYPRP | -0.414 |
| RRIRLRPPRLPRPRPRPKDCPRP | -0.495 |
| RRIRLRPPRLPRPRPRPKDSPRP | -0.139 |
| RRIRLRPPRLPRPRPRPKEIPRP | -0.00121 |
| RRIRLRPPRLPRPRPRPKFFPRP | 0.002 |

| Sequence | shrunken log2 fold change |
| --- | --- |
| RRIRLRPPRLPRPRPRPKFWPRP | 0.0752 |
| RRIRLRPPRLPRPRPRPKGYPRP | -0.146 |
| RRIRLRPPRLPRPRPRPKHRPRP | -0.112 |
| RRIRLRPPRLPRPRPRPKHSPRP | -0.107 |
| RRIRLRPPRLPRPRPRPKIEPRP | 0.0278 |
| RRIRLRPPRLPRPRPRPKKKPRP | 0.141 |
| RRIRLRPPRLPRPRPRPKKMPRP | 0.126 |
| RRIRLRPPRLPRPRPRPKLIPRP | -0.219 |
| RRIRLRPPRLPRPRPRPKLYPRP | 0.0148 |
| RRIRLRPPRLPRPRPRPKMLPRP | -0.0541 |
| RRIRLRPPRLPRPRPRPKMRPRP | 0.608 |
| RRIRLRPPRLPRPRPRPKNWPRP | -0.0113 |
| RRIRLRPPRLPRPRPRPKQAPRP | 0.152 |
| RRIRLRPPRLPRPRPRPKQRPRP | 0.225 |
| RRIRLRPPRLPRPRPRPKRHPRP | 0.208 |
| RRIRLRPPRLPRPRPRPKVWPRP | 0.0698 |
| RRIRLRPPRLPRPRPRPKWAPRP | -0.0391 |
| RRIRLRPPRLPRPRPRPKWYPRP | -0.299 |
| RRIRLRPPRLPRPRPRPKYAPRP | 0.0149 |
| RRIRLRPPRLPRPRPRPKYNPRP | -0.703 |
| RRIRLRPPRLPRPRPRPKYTPRP | -0.61 |
| RRIRLRPPRLPRPRPRPLEEPRP | 0.543 |
| RRIRLRPPRLPRPRPRPLGHPRP | -0.0858 |
| RRIRLRPPRLPRPRPRPLGVPRP | 0.0325 |
| RRIRLRPPRLPRPRPRPLGWPRP | 0.584 |

| Sequence | shrunken log2 fold change |
| --- | --- |
| RRIRLRPPRLPRPRPRPLHFPRP | -0.197 |
| RRIRLRPPRLPRPRPRPLIDPRP | -0.258 |
| RRIRLRPPRLPRPRPRPLIYPRP | -0.832 |
| RRIRLRPPRLPRPRPRPLKDPRP | -0.0949 |
| RRIRLRPPRLPRPRPRPLKSPRP | -0.146 |
| RRIRLRPPRLPRPRPRPLLRPRP | 0.196 |
| RRIRLRPPRLPRPRPRPLLWPRP | 0.195 |
| RRIRLRPPRLPRPRPRPLMFPRP | -0.215 |
| RRIRLRPPRLPRPRPRPLMPPRP | -0.0944 |
| RRIRLRPPRLPRPRPRPLNAPRP | -0.0775 |
| RRIRLRPPRLPRPRPRPLNWPRP | -0.0552 |
| RRIRLRPPRLPRPRPRPLPFPRP | -0.289 |
| RRIRLRPPRLPRPRPRPLPKPRP | 0.393 |
| RRIRLRPPRLPRPRPRPLRFPRP | 0.477 |
| RRIRLRPPRLPRPRPRPLRKPRP | 0.183 |
| RRIRLRPPRLPRPRPRPLRRPRP | 0.249 |
| RRIRLRPPRLPRPRPRPLSNPRP | -0.782 |
| RRIRLRPPRLPRPRPRPLSRPRP | -0.247 |
| RRIRLRPPRLPRPRPRPLVIPRP | -0.33 |
| RRIRLRPPRLPRPRPRPLVLPRP | -0.355 |
| RRIRLRPPRLPRPRPRPLVRPRP | -0.105 |
| RRIRLRPPRLPRPRPRPLVTPRP | 0.000277 |
| RRIRLRPPRLPRPRPRPLWKPRP | -0.0337 |
| RRIRLRPPRLPRPRPRPLWPPRP | 0.302 |
| RRIRLRPPRLPRPRPRPMCMPRP | -0.451 |

| Sequence | shrunken log2 fold change |
| --- | --- |
| RRIRLRPPRLPRPRPRPMENPRP | -0.105 |
| RRIRLRPPRLPRPRPRPMEVPRP | -0.0152 |
| RRIRLRPPRLPRPRPRPMGPPRP | 0.015 |
| RRIRLRPPRLPRPRPRPMGSPRP | -0.000911 |
| RRIRLRPPRLPRPRPRPMHEPRP | -0.0688 |
| RRIRLRPPRLPRPRPRPMHGPRP | 0.0554 |
| RRIRLRPPRLPRPRPRPMHIPRP | 0.0952 |
| RRIRLRPPRLPRPRPRPMHVPRP | -0.0348 |
| RRIRLRPPRLPRPRPRPMIGPRP | 0.0237 |
| RRIRLRPPRLPRPRPRPMLFPRP | -0.136 |
| RRIRLRPPRLPRPRPRPMLWPRP | 0.00318 |
| RRIRLRPPRLPRPRPRPMMTPRP | -0.042 |
| RRIRLRPPRLPRPRPRPMRDPRP | 0.336 |
| RRIRLRPPRLPRPRPRPMRWPRP | 0.278 |
| RRIRLRPPRLPRPRPRPMSWPRP | 0.0708 |
| RRIRLRPPRLPRPRPRPMVRPRP | 0.0341 |
| RRIRLRPPRLPRPRPRPMVTPRP | 0.0098 |
| RRIRLRPPRLPRPRPRPMWCPRP | 0.214 |
| RRIRLRPPRLPRPRPRPMWQPRP | 0.0197 |
| RRIRLRPPRLPRPRPRPNAFPRP | 0.00952 |
| RRIRLRPPRLPRPRPRPNASPRP | 0.0769 |
| RRIRLRPPRLPRPRPRPNAYPRP | 0.0618 |
| RRIRLRPPRLPRPRPRPNEEPRP | 0.00826 |
| RRIRLRPPRLPRPRPRPNFQPRP | -0.0242 |
| RRIRLRPPRLPRPRPRPNGAPRP | 0.0311 |
